Residue numbers refer to the chain shown, from its start. Names may count otherwise. Read-outs that look alike come from different tables or passages of the source.
B1: [Q48V, Q49N, Q51T]hINF-β (ligand)
chain: MSYNLLGFLQRSSNFQCQKLLWQLNGRLEYCLKDRMNFDIPEEIKQLVNFTKEDAALTIYEMLQNIFAIFRQDSSSTGWNETIVENLLANVYHQINHLKTVLEEKLEKEDFTRGKLMSSLHLKRYYGRILHYLKAKEYSHCAWTIVRVEILRNFYFINRLTGYLRN
modifications: introduced N-linked glycosylation site at position 49, besides the natural site at N80 (expressed in CHO K1 cells)
B2: [Q48W, Q49N, Q51T]hINF-β (ligand)
chain: B1 chain with V48W
modifications: introduced N-linked glycosylation site at position 49, besides the natural site at N80 (expressed in CHO K1 cells)
B3: [F111N+R113T]hINF-β variant (ligand)
chain: B1 chain with V48Q, N49Q, T51Q, F111N, R113T
modifications: introduced N-linked glycosylation site at position 111 (used only about 50%), besides the natural site at N80 (expressed in CHO K1 cells)
B4: [D110F, F111N, R113T]hINF-β (ligand)
chain: B1 chain with V48Q, N49Q, T51Q, D110F, F111N, R113T
modifications: introduced N-linked glycosylation site at position 111, besides the natural site at N80 (expressed in CHO K1 cells)
B5: [D110V, F111N, R113T]hINF-β (ligand)
chain: B1 chain with V48Q, N49Q, T51Q, D110V, F111N, R113T
modifications: introduced N-linked glycosylation site at position 111, besides the natural site at N80 (expressed in CHO K1 cells)
B6: [Q49N+Q51T]hINF-β variant (ligand)
chain: B1 chain with V48Q
modifications: introduced N-linked glycosylation site at position 49 (used only about 60%), besides the natural site at N80 (expressed in CHO K1 cells)
B7: [Q48F, Q49N, Q51T]hINF-β (ligand)
chain: B1 chain with V48F
modifications: introduced N-linked glycosylation site at position 49, besides the natural site at N80 (expressed in CHO K1 cells)

Legend:
Test in all cases: cell-based or functional assay
[1] = target: T1, Interferon type I receptors on HeLa cells (UniProt P17181 28-557; P48551 27-515, limits assumed)
T1 sequence (looked up) 1: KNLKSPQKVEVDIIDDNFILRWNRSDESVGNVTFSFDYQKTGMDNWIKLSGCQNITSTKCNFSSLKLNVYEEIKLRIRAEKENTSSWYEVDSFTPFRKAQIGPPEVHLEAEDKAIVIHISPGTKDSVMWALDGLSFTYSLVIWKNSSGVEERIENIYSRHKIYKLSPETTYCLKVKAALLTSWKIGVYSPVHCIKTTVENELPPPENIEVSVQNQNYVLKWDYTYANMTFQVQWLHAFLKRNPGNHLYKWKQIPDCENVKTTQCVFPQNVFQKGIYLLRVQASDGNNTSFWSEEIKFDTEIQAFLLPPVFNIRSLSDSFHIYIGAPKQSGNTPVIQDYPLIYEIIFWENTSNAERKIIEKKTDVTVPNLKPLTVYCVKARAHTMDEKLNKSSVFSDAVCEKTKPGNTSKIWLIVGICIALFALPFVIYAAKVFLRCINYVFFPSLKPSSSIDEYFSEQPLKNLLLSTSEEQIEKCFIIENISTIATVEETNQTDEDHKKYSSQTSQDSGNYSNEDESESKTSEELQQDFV
T1 sequence (looked up) 2: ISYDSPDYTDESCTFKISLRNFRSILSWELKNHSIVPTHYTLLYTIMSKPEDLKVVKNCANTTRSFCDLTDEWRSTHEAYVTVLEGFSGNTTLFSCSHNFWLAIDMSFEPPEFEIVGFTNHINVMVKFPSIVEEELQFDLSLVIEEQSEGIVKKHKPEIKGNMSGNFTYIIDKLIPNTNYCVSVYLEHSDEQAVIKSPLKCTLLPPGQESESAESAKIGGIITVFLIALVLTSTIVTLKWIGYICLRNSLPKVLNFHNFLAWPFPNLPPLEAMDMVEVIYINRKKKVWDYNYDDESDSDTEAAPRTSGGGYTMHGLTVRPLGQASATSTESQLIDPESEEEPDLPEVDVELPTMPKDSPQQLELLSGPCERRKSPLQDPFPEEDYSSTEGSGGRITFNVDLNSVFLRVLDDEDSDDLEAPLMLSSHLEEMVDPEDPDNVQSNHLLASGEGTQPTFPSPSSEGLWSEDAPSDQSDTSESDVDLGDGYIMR

[2] = target: T1, Interferon type I receptors on HeLa …; remark: listed apart in the source
[3] = target: T1, Interferon type I receptors on HeLa …; remark: listed apart in the source

| INF-β activity, culture medium of transfected CHO K1 cells [1] | specific activity relative to wt hINF-β [2] | INF-β activity, culture medium of transfected CHO K1 cells [3] | Binder |
| --- | --- | --- | --- |
| 65900 IU/ml |  |  | B1 |
| 45100 IU/ml |  |  | B2 |
|  | ~2 fold of wt hINF-β | 58600 IU/ml | B3 |
|  |  | 50900 IU/ml | B4 |
|  |  | 15100 IU/ml | B5 |
| 135000 IU/ml |  |  | B6 |
| 53100 IU/ml |  |  | B7 |

Source: patent publication EP2080771A2 (Maxygen Aps, dated 2009)
